These results are taken from article PMC4447949, “Structures of the Ets Protein DNA-binding Domains of Transcription Factors Etv1, Etv4, Etv5, and Fev” (The Journal of Biological Chemistry, 2015).

Holding throughout (details): protein: recombinant; tags: N-terminal His6 removed by TEV (leaves SM); blunt
In one data set the target is Etv1 Y395F (human, UniProt P50549 326-429, Y395F). Kind of data set: EMSA; 2 nM probe; 10 mM TCEP; saturates at 60% of probe; EMSA: 50 mM Tris-HCl pH 7.5, 50 mM NaCl, 2 mM MgCl2, 0.01% Tween 20, 5% glycerol, 1 h at room temperature; proteins reduced with 10 mM TCEP unless stated; 10% native PAGE.
Another data set deals with Etv4 Ets domain (human, UniProt P43268 338-470). As to the kind of experiment: EMSA; 10 mM TCEP; probe 0.1 nM (Table 3) or 0.2 nM (Fig. 9); EMSA: 50 mM Tris-HCl pH 7.5, 50 mM NaCl, 2 mM MgCl2, 0.01% Tween 20, 5% glycerol, 1 h at room temperature; proteins reduced with 10 mM TCEP unless stated; 10% native PAGE.
The next data set concerns the target Etv5 Ets domain (human, UniProt P41161 365-462). The description is as above.
In data set [1] the target is T1, Etv1 S334E (human, UniProt P50549 326-429, S334E). Kind of data set: EMSA; 2 nM probe; 10 mM TCEP; saturates at 35% of probe; EMSA: 50 mM Tris-HCl pH 7.5, 50 mM NaCl, 2 mM MgCl2, 0.01% Tween 20, 5% glycerol, 1 h at room temperature; proteins reduced with 10 mM TCEP unless stated; 10% native PAGE.
The target in the next data set is Etv1 R391A (human, UniProt P50549 326-429, R391A). Kind of data set: EMSA; 2 nM probe; 10 mM TCEP; EMSA: 50 mM Tris-HCl pH 7.5, 50 mM NaCl, 2 mM MgCl2, 0.01% Tween 20, 5% glycerol, 1 h at room temperature; proteins reduced with 10 mM TCEP unless stated; 10% native PAGE. A general note: A gel shift assay detects complexes by their altered migration in electrophoresis.

For a further data set, the target named is Etv1 D387A (human, UniProt P50549 326-429, D387A). Described as above.
The target in another data set is Etv1 R394A (human, UniProt P50549 326-429, R394A). Described as above.
Another data set has as its target Etv1 Y396F (human, UniProt P50549 326-429, Y396F). The description is as above.
The target in data set [2] is T2, Etv1 Ets domain WT (reduced monomer) (human, UniProt P50549 326-429). Described as above.
In another data set the target is Etv1 Y329S-P427S (human, UniProt P50549 326-429, Y329S;P427S). The description is as above.
The target in data set [3] is T2, Etv1 Ets domain WT (reduced monomer). As to the kind of experiment: EMSA; 0.1 nM probe; 10 mM TCEP; EMSA: 50 mM Tris-HCl pH 7.5, 50 mM NaCl, 2 mM MgCl2, 0.01% Tween 20, 5% glycerol, 1 h at room temperature; proteins reduced with 10 mM TCEP unless stated; 10% native PAGE.
The target in data set [4] is T1, Etv1 S334E. The description is as above.
The target of the next data set is Etv1 K404A (human, UniProt P50549 326-429, K404A). Kind of data set: EMSA; 2 nM probe; EMSA: 50 mM Tris-HCl pH 7.5, 50 mM NaCl, 2 mM MgCl2, 0.01% Tween 20, 5% glycerol, 1 h at room temperature; proteins reduced with 10 mM TCEP unless stated; 10% native PAGE.
The target of another data set is Etv1 C416S (human, UniProt P50549 326-429, C416S). The data set is described as above.
A further data set concerns the target Etv1 Y397F (human, UniProt P50549 326-429, Y397F). As to the kind of experiment: EMSA; 2 nM probe; undetectable or below regression threshold; EMSA: 50 mM Tris-HCl pH 7.5, 50 mM NaCl, 2 mM MgCl2, 0.01% Tween 20, 5% glycerol, 1 h at room temperature; proteins reduced with 10 mM TCEP unless stated; 10% native PAGE.

T2 sequence (P50549 326-429): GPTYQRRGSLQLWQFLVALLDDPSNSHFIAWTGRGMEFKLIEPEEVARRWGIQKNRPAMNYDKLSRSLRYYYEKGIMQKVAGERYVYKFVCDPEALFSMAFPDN
T1 sequence (P50549 326-429 S334E): as the sequence (P50549 326-429) above, with S9E counted along it
Chain of Etv1 Y329S-P427S (P50549 326-429 Y329S/P427S): as the sequence (P50549 326-429) above, with Y4S, P102S counted along it
Chain of Etv1 R394A (P50549 326-429 R394A): as the sequence (P50549 326-429) above, with R69A counted along it
Chain of Etv1 Y397F (P50549 326-429 Y397F): as the sequence (P50549 326-429) above, with Y72F counted along it
Chain of Etv1 R391A (P50549 326-429 R391A): as the sequence (P50549 326-429) above, with R66A counted along it
Chain of Etv1 D387A (P50549 326-429 D387A): as the sequence (P50549 326-429) above, with D62A counted along it
Chain of Etv1 Y395F (P50549 326-429 Y395F): as the sequence (P50549 326-429) above, with Y70F counted along it
Chain of Etv4 Ets domain (P43268 338-470): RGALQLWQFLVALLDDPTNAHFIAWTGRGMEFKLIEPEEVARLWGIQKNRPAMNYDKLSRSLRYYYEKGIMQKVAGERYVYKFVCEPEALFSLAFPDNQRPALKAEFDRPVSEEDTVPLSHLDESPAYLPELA
Chain of Etv1 C416S (P50549 326-429 C416S): as the sequence (P50549 326-429) above, with C91S counted along it
Chain of Etv5 Ets domain (P41161 365-462): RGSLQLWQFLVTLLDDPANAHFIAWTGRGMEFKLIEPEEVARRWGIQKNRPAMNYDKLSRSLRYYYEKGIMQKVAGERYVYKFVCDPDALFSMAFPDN
Chain of Etv1 K404A (P50549 326-429 K404A): as the sequence (P50549 326-429) above, with K79A counted along it
Chain of Etv1 Y396F (P50549 326-429 Y396F): as the sequence (P50549 326-429) above, with Y71F counted along it

B1: Etv1ALF/Etv1ALR EMSA probe (dsDNA)
DNA 1: ATCTCACCGGAAGTGTAGCA
DNA 2: TGCTACACTTCCGGTGAGAT
By Kd is commonly meant the concentration at which binding is half-saturated. Take B1: the Kd with Etv1 Y395F is 0.23 ± 0.05 nM; with Etv4 Ets domain, 0.34 ± 0.066 nM; with Etv5 Ets domain, 1.16 ± 0.11 nM; with Etv1 S334E [1], 0.89 ± 0.32 nM; with Etv1 R391A, 11.8 ± 1.48 nM; with Etv1 D387A it was 0.17 ± 0.02 nM. For the same molecule, the Kd with Etv1 R394A was found to be 276 ± 62.7 nM; with Etv1 Y396F, 2640 ± 935 nM; in [2] it was 0.27 ± 0.028 nM; in the data set with Etv1 Y329S-P427S, 0.25 ± 0.026 nM; in data set [3] it was 0.59 ± 0.15 nM; in the data set with Etv1 S334E [4], 0.94 ± 0.51 nM. Moreover, the Kd in the data set with Etv1 C416S was determined as 0.46 ± 0.06 nM. Besides, the binding result in the data set with Etv1 K404A and in the data set with Etv1 Y397F was “no binding” throughout.
